# According to publication PMC8440430 (Current biology : CB, 2021):
# Tests used:
# His6-RIT1 = His6-RIT1 (human, UniProt Q92963 1-219); assay: pull-down
# His6-MAD2 = His6-MAD2 (human, UniProt Q13257 1-205); assay: pull-down
# [1] = biological target: FLAG-RIT1 protein (full-length recombinant RIT1) (human, UniProt Q92963 1-219); assay: pull-down
# [2] = biological target: MAD2 WT (recombinant, TEV-cleaved) (human, UniProt Q13257 1-205); assay: SEC
# FLAG-RIT1 protein (full-length recombinant RIT1), sequence (Q92963 whole entry): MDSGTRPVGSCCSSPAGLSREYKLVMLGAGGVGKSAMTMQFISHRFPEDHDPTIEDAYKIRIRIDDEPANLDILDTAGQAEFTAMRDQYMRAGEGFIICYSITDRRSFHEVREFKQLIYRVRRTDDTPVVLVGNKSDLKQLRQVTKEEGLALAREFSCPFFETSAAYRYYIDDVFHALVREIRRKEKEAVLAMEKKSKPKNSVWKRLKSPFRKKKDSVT
# His6-RIT1, sequence (Q92963 whole entry): as above
binder,measurement,setting,value
"GST-RGL3 RBD (604-703) (domain or fragment, UniProt Q3MIN7 604-703, looked up) IPLPAQQSSEARVIRVSIDNDHGNLYRSILLTSQDKAPSVVRRALQKHNVPQPWACDYQLFQVLPGDRVLLIPDNANVFYAMSPVAPRDFMLRRKEGTRN",binding result,His6-RIT1,binds
"EHQKAWALNLNGFDVEEAKILRLSGKPQ (domain or fragment, UniProt Q12834 111-138, looked up) [GST-CDC20 111-138]",binding result,His6-MAD2,binds
"GST-MAD2 Loop-less (LL) (natural protein, human) MALQLSREQGITLRGSAEIVAEFFSFGINSILYQRGIYPSETFTRVQKYGLTLLVTTDLELIKYLNNVVEQLKDWLYKCSVQKLVVVISNIESGEVLERWQFDIECDKGSGEKSQKAIQDEIRSVIRQITATVTFLPLLEVSCSFDLLIYTDKDLVVPEKWEESGPQFITNSEEVRLRSFTTTIHKVNSMVAYKIPVND",binding result,[1],binds
"SVWKRLKSPFRKKKD (peptide, UniProt Q92963 202-216, looked up) [RIT1 (202-216) peptide]",binding result,[2],binds
